This is an account of results in the supplement of paper PMC9170038.

For the data set, the system named is MS2 coat protein. Description: apparent KD of MS2 coat protein; designed switch direction (-1 OFF switch, 1 ON switch): -1; higher = weaker reporter binding. The method in brief:
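Apparent KD, taken as the median over clusters for each design, was obtained by curve-fitting normalised cluster fluorescence. Designed RNA switches had been transcribed on Illumina chips by stalled E. coli RNA polymerase and titrated with SNAP-549-labelled MS2 coat protein, doubling from 0.7 or 1.5 nM to 3 µM.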

[1] abbreviates: Eterna round: R95, input ligand: microRNA oligo, concentration not stated.
The mark [2] stands for this setting: Eterna round: R95, input ligand: FMN 200 uM.
[3] abbreviates: Eterna round: R95, input ligand: none.
The mark [4] stands for this setting: input ligand: microRNA oligo, concentration not stated.

As for “UUUUAACAUGAGGAUCACCCAUGUGAGGAUAUCGAAAUUUAUAUUUAUAUUAAUAUAUCGAGAAGGCACAUUUU [JMF 80] (puzzle: Exclusion 1)”, the “apparent KD of MS2 coat protein” value under setting [1] was found to be 93.1 nM.

For “GCUUGUAGAGGAUAUACGAGGGCCCGAGCGGAUAACACCGCACAUGAGGAUCACCCAUGUAGAAGGCUACCACC [Riquinza] (puzzle: Exclusion 2)”, the “apparent KD of MS2 coat protein” value under setting [1] was 20.8 nM.

For “GUUUUACAUGAGGAUCACCCAUGUGAGGAUAUAUUAUUAAUAGUGAUAAUUAUUGGUGGUAGAAGGCGCGUGAU [JR_Exc1_Sub012] (Eterna round: R97, puzzle: Exclusion 1)”, the “apparent KD of MS2 coat protein” value (input ligand: FMN 200 uM) came to 50.9 nM and the “apparent KD of MS2 coat protein” value (input ligand: none) is 53.1 nM.

Take “GAUUGACAUGAGGAUCACCCAUGUGAGGAUAUCGGCUGGACCGUGUUGGCUUGCUUCUCGAGAAGGCGCAUAGG [Exclusion 1 V51] (puzzle: Exclusion 1)”: the “apparent KD of MS2 coat protein” value came out at 32.7 nM under setting [2], 33.9 nM under setting [1] and 36 nM under setting [3].

For the sequence “GAAUAGGUAGGAUAUACGAAAAAAAAGGGUAGAAAAAAAACACAUGAGGAUCACCCAUGUAGAAGGACCAAAAG [salish99_ex2_r3_089] (puzzle: Exclusion 2)”, the “apparent KD of MS2 coat protein” value by setting is: under setting [2], 68.6 nM; under setting [1], 31.6 nM; under setting [3], 29.6 nM.

On to “AGAUCCUGAGUCAGGAUAUAGAGGCGGUAGCCUGGCUAGAAGGGACAUGAGGAUCACCCAUGUGGGUUCUUGCC [Gecela] (puzzle: Brourd's mod of Exclusion 4)”, for which the “apparent KD of MS2 coat protein” value under setting [1] came out at 12.7 nM.

For the sequence “GCCAUGUGAGGAUAUGUGGUCGAAUAUGAAAGUGAUUGACCAUAGAAGGCACAUGAGGAUCACCCAUGUCCUUU [Eternabot (L2) Solution 64] (Eterna round: R97, puzzle: Exclusion 4)”, the “apparent KD of MS2 coat protein” value (input ligand: FMN 200 uM) turned out to be 131 nM and the “apparent KD of MS2 coat protein” value (input ligand: none) stood at 27.3 nM.

Turning to “GUAUGUGACGAGGAUAUCACCUUGUUACUUAGAUGAGAAGGCGUCACAUGAGGAUCACCCAUGUGAUGAAAAGA [EX6 A.14] (Eterna round: R97, puzzle: Exclusion 6)”, the “apparent KD of MS2 coat protein” value by setting is: (input ligand: FMN 200 uM) 27.4 nM; (input ligand: none) 21.4 nM.

Consider “AACAAGUCAGGAUAUGCCCUGAUAGACUUGAGGAUCACCCAAGUAAGUCUAUCUGGCUAAGCAGAAGGGACAAAAG [Usrabe] (Eterna round: R97, puzzle: Exclusion 5)”, for which the “apparent KD of MS2 coat protein” value reads like this: (input ligand: FMN 200 uM) 643 nM; (input ligand: none) 649 nM.

Take “GCAGAAAGUGUAGGAUAUAGAAAUUAGCGGAAACGCAAUACAUGAGGAUCACCCAUGUUUCCUCACUAGAAGGGCAAAAGCUGC [EXNG2 V2 f] (Eterna round: R96, puzzle: Exclusion NG 2)”: the “apparent KD of MS2 coat protein” value under setting [4] turned out to be 12.8 nM.

Turning to “AUACCACGAGGAUAUCGUCUAUUUCACAUGAGGAUCACCCAUGUUAUCCUUGUUUCGUUUCGAGAAGGCGUGUUUU [JR_E5_Sub076] (puzzle: Exclusion 5)”, the “apparent KD of MS2 coat protein” value under setting [1] is 43.8 nM.

“UGAGCUUCAGGAUAUACGUGACGACCGUGAGGUCGAAGGUUACAUGAGGAUCACCCAUGUAGAAGGGAAGUUCU [Mat - Exclusion 2 - JL Mod - D27] (Eterna round: R97, puzzle: Exclusion 2)”: the “apparent KD of MS2 coat protein” value by setting is: (input ligand: FMN 200 uM) 70.8 nM; (input ligand: none) 27.5 nM.

With “UUCACAUGGACAUGAGAUCACAUGAGGAUCACCCAUGUGAAUAACAAGCUUUUUGCUCGUCUUAUGUCCAAUAAUAU [Stov1/14-C3] (Eterna round: R97, puzzle: Sensor, turn-off variant 1)”, the “apparent KD of MS2 coat protein” value (input ligand: FMN 200 uM) turned out to be 13.1 nM and the “apparent KD of MS2 coat protein” value (input ligand: none) is 13.1 nM.

As for “UUAAUGGUUGUGAGGAUAUCGGAUAGAUAGAUAUUCGAGAAGGCACAUGAGGAUCACCCAUGUGUGAUCAGAAA [Brourd's EX4 #61] (Eterna round: R97, puzzle: Brourd's mod of Exclusion 4)”, the “apparent KD of MS2 coat protein” value was 410 nM (input ligand: FMN 200 uM) and 202 nM (input ligand: none).

“GAGUGCUGAGGAUAUACAUGAGGAUCACCCAUGUGCUUCAGCUAGGAGACUAGCAUCCGUAGAAGGCAGUACUC [Mod of lroppy 24 - Jieux - Exclusion 3] (Eterna round: R97, puzzle: Exclusion 3)”: the “apparent KD of MS2 coat protein” value is, setting by setting: (input ligand: FMN 200 uM) 37.5 nM; (input ligand: none) 14.3 nM.

As for “GUUAGUUAAGGAUAUACAGGGAGCCGCGGCGUCUCGCCGCAACAUGAGGAUCACCCAUGUAGAAGGUGGCCAUU [JL ViennaUCT Enbibi mod 2] (puzzle: Exclusion 2)”, the “apparent KD of MS2 coat protein” value under setting [1] was determined as 101 nM.

As to “GGCCGUAAUAAGGAUAUCACUAGCUUCGGCUAGUGAGAAGGUAUUACAUGAGGAUCACCCAUGUGAUCAGGCCA [E6/3-B1] (Eterna round: R97, puzzle: Exclusion 6)”, the “apparent KD of MS2 coat protein” value came to 726 nM (input ligand: FMN 200 uM) and 170 nM (input ligand: none).

Take “ACAAGCGAAAGGCUCGUCUUAUUUUUGUAGAGGUUCUAAACAUGAGGAUCACCCAUGUAGUGGCGAUGGUGGAGGUA [JR_SV3TOV2_Sub069] (puzzle: Sensor v3, turn-off variant 2)”: the “apparent KD of MS2 coat protein” value is 41.8 nM under setting [2], 44.2 nM under setting [1] and 42.4 nM under setting [3].

“ACAGUUUUGCAAGGAUAUCGUUUUAGUUUAUUACGAGAAGGUGCUUAAGUAAUUUCUUUGGGUUGACAUGAGGAUCACCCAUGU [JR_ExcNG1_Sub058] (Eterna round: R96, puzzle: Exclusion NG 1)”: the “apparent KD of MS2 coat protein” value is 160 nM (input ligand: FMN 200 uM), 128 nM under setting [4] and 139 nM (input ligand: none).

With “UUUUUUGUAGUGAGGAUAUCGUUGUGGAUGUGGAUCGAGAAGGCACAUGAGGAUCACCCAUGUUAGUUGUGGUU [JR_BMOE4_Sub084] (puzzle: Brourd's mod of Exclusion 4)”, the “apparent KD of MS2 coat protein” value under setting [1] was found to be 188 nM.

For the sequence “AGUAACCGUCACGAAAGUGAUGGUUACACAAGCAAAUGUACAUGAGGAUCACCCAUGUCCUCAAUUGCUCGUCUUAU [Sensor 3 - 50] (puzzle: Sensor v3, turn-off variant 2)”, the “apparent KD of MS2 coat protein” value was 106 nM under setting [2], 165 nM under setting [1] and 137 nM under setting [3].

As for “AGGUGAUAUCUGUCGAUGGACAUGAGGAUCACCCAUGUGAGCUUUUUGCUCGUCUUAUAAACCGGUGACAGACCUUC [Sensor v3, turn-off variant 1 (MOD of Zalaso)] (puzzle: Sensor v3, turn-off variant 1)”, the “apparent KD of MS2 coat protein” value under setting [2] was found to be 49.8 nM, the “apparent KD of MS2 coat protein” value under setting [1] was found to be 20.6 nM and the “apparent KD of MS2 coat protein” value under setting [3] stood at 69.4 nM.

Consider “CGUGUAGGAGUAGGAUAUGCGUCUAGACUACGAGCAGAAGGACUCCAGGACUUGAGGAUCACCCAAGUGCGUCCCGAGCCGUAG [Mutated MS2 EX1.23] (Eterna round: R96, puzzle: Exclusion NG 1)”, for which the “apparent KD of MS2 coat protein” value amounted to 11.9 nM (input ligand: FMN 200 uM), 11.7 nM under setting [4] and 12 nM (input ligand: none).

For the sequence “GAUUAACAAGCGAGAUCCCACAUGAGGAUCACCCAUGUGCUCGUCUUAUAAGGUACUGUGACGAAAGUCACGGUACC [Mat - Sensor, turn-off var - Eli Mod - D5] (Eterna round: R97, puzzle: Sensor, turn-off variant 1)”, the “apparent KD of MS2 coat protein” value was 13.5 nM (input ligand: FMN 200 uM) and 15.2 nM (input ligand: none).
